Data on four molecules can be found in paper PMC8766458, “Deciphering the mechanism of processive ssDNA digestion by the Dna2-RPA ensemble” (Nature Communications, 2022).

Details in all cases: both partners purified
Assay [1] concerns the target T1, dna2-D657A (nuclease-dead Dna2) (S. cerevisiae, UniProt P38859 1-1522, D657A).
T1 construct: Dna2, Saccharomyces cerevisiae, nuclease-dead version; Purified as the other Dna2 variants; FLAG tag used for quantum-dot labelling in DNA Curtains; also called dna2-D657A mutant; source: over-expressed in yeast, purified (Ni-NTA, anti-FLAG-M2 resin)
Nature of the assay: native gel or EMSA; ternary complex of dna2-D657A variants (20 nM), Rfa1 truncations or mutants (20 nM) and 5 nM dT(20) ssDNA; 150 mM KCl, 30 °C, 4% native gel. (In EMSA bound probe runs differently from free probe, usually more slowly.)

Assay [2] has as its target T2, RPA–Y193A–GFP (RPA complex harboring rfa1–Y193A) (yeast (S. cerevisiae), UniProt P22336 1-621; P26754 1-273; P26755 1-122, Y193A).
T2 construct: Rfa1, large subunit of yeast RPA, with Y193A in the linker between Rfa1-N and DBD-A; Rfa2, middle subunit of yeast RPA; Rfa3, small subunit of yeast RPA; GFP is fused to one subunit and kept in the assay; preparation not described; also called RPA complex harboring rfa1–Y193A mutant; copies: + +
Nature of the assay: single-molecule DNA Curtains (TIRF microscopy); quantum-dot labelled Dna2 variants on ssDNA coated with RPA–GFP variants; NaCl concentration of these results not told in the text (conditions in Supplementary Table 1).

Assay [3] addresses T3, RPA–GFP (yeast (S. cerevisiae), UniProt P22336 1-621; P26754 1-273; P26755 1-122).
T3 construct: Rfa1, large subunit of yeast RPA; Rfa2, middle subunit of yeast RPA; Rfa3, small subunit of yeast RPA; GFP is fused to one subunit and kept in the assay (it is imaged); Coats the ssDNA of the DNA Curtains; also called RPA (green) on ssDNA; copies: + +
Described as above.

T3 sequence (P26754 whole entry, chain 2 of 2, the tested form may be a part): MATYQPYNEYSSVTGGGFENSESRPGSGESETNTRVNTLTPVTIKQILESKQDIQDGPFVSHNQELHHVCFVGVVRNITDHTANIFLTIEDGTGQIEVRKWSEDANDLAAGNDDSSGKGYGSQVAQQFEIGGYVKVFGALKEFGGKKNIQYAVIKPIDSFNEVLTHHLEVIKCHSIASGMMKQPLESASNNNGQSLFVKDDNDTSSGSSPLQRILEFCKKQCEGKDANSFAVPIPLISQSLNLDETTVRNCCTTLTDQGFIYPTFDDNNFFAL
T3 sequence (P26755 whole entry, chain 3 of 2, the tested form may be a part): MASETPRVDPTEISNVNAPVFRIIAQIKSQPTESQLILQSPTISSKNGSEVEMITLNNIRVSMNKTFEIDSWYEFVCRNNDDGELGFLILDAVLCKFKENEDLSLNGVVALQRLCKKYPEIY

B1: Rfa1-N-DBD-A/B (Rfa1–NAB, amino acid 1–435) (domain or fragment, yeast (S. cerevisiae), UniProt P22336 1-435, looked up)
chain: MSSVQLSRGDFHSIFTNKQRYDNPTGGVYQVYNTRKSDGANSNRKNLIMISDGIYHMKALLRNQAASKFQSMELQRGDIIRVIIAEPAIVRERKKYVLLVDDFELVQSRADMVNQTSTFLDNYFSEHPNETLKDEDITDSGNVANQTNASNAGVPDMLHSNSNLNANERKFANENPNSQKTRPIFAIEQLSPYQNVWTIKARVSYKGEIKTWHNQRGDGKLFNVNFLDTSGEIRATAFNDFATKFNEILQEGKVYYVSKAKLQPAKPQFTNLTHPYELNLDRDTVIEECFDESNVPKTHFNFIKLDAIQNQEVNSNVDVLGIIQTINPHFELTSRAGKKFDRRDITIVDDSGFSISVGLWNQQALDFNLPEGSVAAIKGVRVTDFGGKSLSMGFSSTLIPNPEIPEAYALKGWYDSKGRNANFITLKQEPGMGGQ
notes: Rfa1 of yeast RPA, residues 1-435 (N, DBD-A and DBD-B domains); The 6xHis tag can optionally be removed by TEV protease; also called NAB polypeptide; pHis–Rfa1 1–435; source: E. coli BL21 codon plus, purified (Ni-NTA, Superdex 200)
For B1, in assay [1], the binding result is on record as “binds”.

B2: rfa1–NAB–K45E (pHis-Rfa1 1-435 K45E) (domain or fragment, yeast (S. cerevisiae), UniProt P22336 1-435, looked up)
chain: MSSVQLSRGDFHSIFTNKQRYDNPTGGVYQVYNTRKSDGANSNRENLIMISDGIYHMKALLRNQAASKFQSMELQRGDIIRVIIAEPAIVRERKKYVLLVDDFELVQSRADMVNQTSTFLDNYFSEHPNETLKDEDITDSGNVANQTNASNAGVPDMLHSNSNLNANERKFANENPNSQKTRPIFAIEQLSPYQNVWTIKARVSYKGEIKTWHNQRGDGKLFNVNFLDTSGEIRATAFNDFATKFNEILQEGKVYYVSKAKLQPAKPQFTNLTHPYELNLDRDTVIEECFDESNVPKTHFNFIKLDAIQNQEVNSNVDVLGIIQTINPHFELTSRAGKKFDRRDITIVDDSGFSISVGLWNQQALDFNLPEGSVAAIKGVRVTDFGGKSLSMGFSSTLIPNPEIPEAYALKGWYDSKGRNANFITLKQEPGMGGQ
notes: Rfa1 of yeast RPA, residues 1-435, charge reversal in the basic cleft of Rfa1-N; also called rfa1–t11; rfa1–K45E; source: E. coli BL21 codon plus, purified (Ni-NTA, Superdex 200)
B2: in assay [1], the binding result is reported as “binds”.

B3: Dna2 (wild type, FLAG-His6-tagged) (enzyme, S. cerevisiae, UniProt P38859 1-1522, looked up)
chain: MPGTPQKNKRSASISVSPAKKTEEKEIIQNDSKAILSKQTKRKKKYAFAPINNLNGKNTKVSNASVLKSIAVSQVRNTSRTKDINKAVSKSVKQLPNSQVKPKREMSNLSRHHDFTQDEDGPMEEVIWKYSPLQRDMSDKTTSAAEYSDDYEDVQNPSSTPIVPNRLKTVLSFTNIQVPNADVNQLIQENGNEQVRPKPAEISTRESLRNIDDILDDIEGDLTIKPTITKFSDLPSSPIKAPNVEKKAEVNAEEVDKMDSTGDSNDGDDSLIDILTQKYVEKRKSESQITIQGNTNQKSGAQESCGKNDNTKSRGEIEDHENVDNQAKTGNAFYENEEDSNCQRIKKNEKIEYNSSDEFSDDSLIELLNETQTQVEPNTIEQDLDKVEKMVSDDLRIATDSTLSAYALRAKSGAPRDGVVRLVIVSLRSVELPKIGTQKILECIDGKGEQSSVVVRHPWVYLEFEVGDVIHIIEGKNIENKRLLSDDKNPKTQLANDNLLVLNPDVLFSATSVGSSVGCLRRSILQMQFQDPRGEPSLVMTLGNIVHELLQDSIKYKLSHNKISMEIIIQKLDSLLETYSFSIIICNEEIQYVKELVMKEHAENILYFVNKFVSKSNYGCYTSISGTRRTQPISISNVIDIEENIWSPIYGLKGFLDATVEANVENNKKHIVPLEVKTGKSRSVSYEVQGLIYTLLLNDRYEIPIEFFLLYFTRDKNMTKFPSVLHSIKHILMSRNRMSMNFKHQLQEVFGQAQSRFELPPLLRDSSCDSCFIKESCMVLNKLLEDGTPEESGLVEGEFEILTNHLSQNLANYKEFFTKYNDLITKEESSITCVNKELFLLDGSTRESRSGRCLSGLVVSEVVEHEKTEGAYIYCFSRRRNDNNSQSMLSSQIAANDFVIISDEEGHFCLCQGRVQFINPAKIGISVKRKLLNNRLLDKEKGVTTIQSVVESELEQSSLIATQNLVTYRIDKNDIQQSLSLARFNLLSLFLPAVSPGVDIVDERSKLCRKTKRSDGGNEILRSLLVDNRAPKFRDANDDPVIPYKLSKDTTLNLNQKEAIDKVMRAEDYALILGMPGTGKTTVIAEIIKILVSEGKRVLLTSYTHSAVDNILIKLRNTNISIMRLGMKHKVHPDTQKYVPNYASVKSYNDYLSKINSTSVVATTCLGINDILFTLNEKDFDYVILDEASQISMPVALGPLRYGNRFIMVGDHYQLPPLVKNDAARLGGLEESLFKTFCEKHPESVAELTLQYRMCGDIVTLSNFLIYDNKLKCGNNEVFAQSLELPMPEALSRYRNESANSKQWLEDILEPTRKVVFLNYDNCPDIIEQSEKDNITNHGEAELTLQCVEGMLLSGVPCEDIGVMTLYRAQLRLLKKIFNKNVYDGLEILTADQFQGRDKKCIIISMVRRNSQLNGGALLKELRRVNVAMTRAKSKLIIIGSKSTIGSVPEIKSFVNLLEERNWVYTMCKDALYKYKFPDRSNAIDEARKGCGKRTGAKPITSKSKFVSDKPIIKEILQEYES
notes: Dna2 nuclease-helicase, Saccharomyces cerevisiae, wild type; Wild-type protein; In DNA Curtains it was labelled with anti-FLAG quantum dots; in MST with the His-tag labelling kit RED-tris-NTA; also called wild-type Dna2; (His)6-tagged Dna2; source: over-expressed in yeast, purified (Ni-NTA, anti-FLAG-M2 resin)
B3: the “recruitment relative to wild-type RPA” value in assay [2] came out at 80%.

B4: dna2-AC (dna2-D357A,E358A,D361A,D362A,E366A), FLAG-His6-tagged (enzyme, S. cerevisiae, UniProt P38859 1-1522, looked up)
chain: MPGTPQKNKRSASISVSPAKKTEEKEIIQNDSKAILSKQTKRKKKYAFAPINNLNGKNTKVSNASVLKSIAVSQVRNTSRTKDINKAVSKSVKQLPNSQVKPKREMSNLSRHHDFTQDEDGPMEEVIWKYSPLQRDMSDKTTSAAEYSDDYEDVQNPSSTPIVPNRLKTVLSFTNIQVPNADVNQLIQENGNEQVRPKPAEISTRESLRNIDDILDDIEGDLTIKPTITKFSDLPSSPIKAPNVEKKAEVNAEEVDKMDSTGDSNDGDDSLIDILTQKYVEKRKSESQITIQGNTNQKSGAQESCGKNDNTKSRGEIEDHENVDNQAKTGNAFYENEEDSNCQRIKKNEKIEYNSSAAFSAASLIALLNETQTQVEPNTIEQDLDKVEKMVSDDLRIATDSTLSAYALRAKSGAPRDGVVRLVIVSLRSVELPKIGTQKILECIDGKGEQSSVVVRHPWVYLEFEVGDVIHIIEGKNIENKRLLSDDKNPKTQLANDNLLVLNPDVLFSATSVGSSVGCLRRSILQMQFQDPRGEPSLVMTLGNIVHELLQDSIKYKLSHNKISMEIIIQKLDSLLETYSFSIIICNEEIQYVKELVMKEHAENILYFVNKFVSKSNYGCYTSISGTRRTQPISISNVIDIEENIWSPIYGLKGFLDATVEANVENNKKHIVPLEVKTGKSRSVSYEVQGLIYTLLLNDRYEIPIEFFLLYFTRDKNMTKFPSVLHSIKHILMSRNRMSMNFKHQLQEVFGQAQSRFELPPLLRDSSCDSCFIKESCMVLNKLLEDGTPEESGLVEGEFEILTNHLSQNLANYKEFFTKYNDLITKEESSITCVNKELFLLDGSTRESRSGRCLSGLVVSEVVEHEKTEGAYIYCFSRRRNDNNSQSMLSSQIAANDFVIISDEEGHFCLCQGRVQFINPAKIGISVKRKLLNNRLLDKEKGVTTIQSVVESELEQSSLIATQNLVTYRIDKNDIQQSLSLARFNLLSLFLPAVSPGVDIVDERSKLCRKTKRSDGGNEILRSLLVDNRAPKFRDANDDPVIPYKLSKDTTLNLNQKEAIDKVMRAEDYALILGMPGTGKTTVIAEIIKILVSEGKRVLLTSYTHSAVDNILIKLRNTNISIMRLGMKHKVHPDTQKYVPNYASVKSYNDYLSKINSTSVVATTCLGINDILFTLNEKDFDYVILDEASQISMPVALGPLRYGNRFIMVGDHYQLPPLVKNDAARLGGLEESLFKTFCEKHPESVAELTLQYRMCGDIVTLSNFLIYDNKLKCGNNEVFAQSLELPMPEALSRYRNESANSKQWLEDILEPTRKVVFLNYDNCPDIIEQSEKDNITNHGEAELTLQCVEGMLLSGVPCEDIGVMTLYRAQLRLLKKIFNKNVYDGLEILTADQFQGRDKKCIIISMVRRNSQLNGGALLKELRRVNVAMTRAKSKLIIIGSKSTIGSVPEIKSFVNLLEERNWVYTMCKDALYKYKFPDRSNAIDEARKGCGKRTGAKPITSKSKFVSDKPIIKEILQEYES
notes: Dna2, Saccharomyces cerevisiae, with all acidic residues of the second acidic patch (amino acid 355-366) changed to alanine; source: over-expressed in yeast, purified (Ni-NTA, anti-FLAG-M2 resin)
Regarding B4, the “fold less recruitment than wild-type Dna2” value in assay [3] is roughly 2 fold.
